Experimental data: publication PMC3169408, “Structure of triosephosphate isomerase from Cryptosporidium parvum” (Acta Crystallographica Section F: Structural Biology and …, 2011)

Target: the molecule itself
Assay: crystal structure; crystals from 100 mM Bis-Tris propane pH 7.5, 200 mM sodium sulfate, 20% PEG 3350; space group P2(1); 1.55 Å; two molecules per asymmetric unit; interface analysed with PISA

B1: triosephosphate isomerase from Cryptosporidium parvum Iowa II (enzyme, UniProt Q5CSE7 1-250, looked up)
chain: MSRKYFVGGNFKCNGTKESLKTLIDSFKQVESSNSEVYVFPTSLHISLVKEFFGNDHPGVFKIGSQNISCTGNGAFTGEVSCEMLKDMDVDCSLVGHSERRQYYSETDQIVNNKVKKGLENGLKIVLCIGESLSERETGKTNDVIQKQLTEALKDVSDLSNLVIAYEPIWAIGTGVVATPGQAQEAHAFIREYVTRMYNPQVSSNLRIIYGGSVTPDNCNELIKCADIDGFLVGGASLKPTFAKIIESAQ
notes: triosephosphate isomerase, Cryptosporidium parvum Iowa II, UniProt Q5CSE7, residues 1-250 (Met1-Gln250), full length; The final model extends from Ser2 to Gln250 in both chains; also called TIM; CrpaA.01119.a.A1; source: E. coli Rosetta Oxford strain [BL21*(DE3)-R3-pRARE2], purified (IMAC, tag cleavage with 3C protease, SEC)
- stoichiometry N: 2
